The values below come from JP2000154149A (dated 2000).

Numbering of substitutions follows the chain as printed.

This assay has as its target T1, ヒトFas抗原 on human lymphocyte cell line HPB-ALL (human, UniProt P25445 26-335).
T1 sequence (looked up): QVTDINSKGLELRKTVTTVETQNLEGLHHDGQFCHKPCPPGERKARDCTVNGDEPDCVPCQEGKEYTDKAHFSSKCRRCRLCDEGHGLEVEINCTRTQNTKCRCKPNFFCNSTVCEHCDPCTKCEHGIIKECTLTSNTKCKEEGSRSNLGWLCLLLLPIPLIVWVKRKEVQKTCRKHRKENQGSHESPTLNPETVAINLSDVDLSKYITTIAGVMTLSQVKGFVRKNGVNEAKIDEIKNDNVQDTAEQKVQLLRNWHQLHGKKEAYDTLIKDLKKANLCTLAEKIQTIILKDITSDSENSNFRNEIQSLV
The experiment in a line: cell-based or functional assay.

B1: マウス抗ヒトFas抗体CH11(MBL社) (antibody, mouse IgM)
heavy: EVQLQQSGPELVKPGASVKISCKASGYTFTDYNMHWVKQSHGKSLEWIGYIYPYNGGTGYNQKFKSKATLTVDNSSSTAYMELRSLTSEDSAVYYCARSYYAMDYWGQGTSVTVSSESQSFPNVFPLVSCESPLSDKNLVAMGCLARDFLPSTISFTWNYQNNTEVIQGIRTFPTLRTGGKYLATSQVLLSPKSILEGSDEYLVCKIHYGGKNRDLHVPIPAVAEMNPNVNVFVPPRDGFSGPAPRKSKLICEATNFTPKPITVSWLKDGKLVESGFTTDPVTIENKGSTPQTYKVISTLTISEIDWLNLNVYTCRVDHRGLTFLKNVSSTCAASPSTDILTFTIPPSFADIFLSKSANLTCLVSNLATYETLNISWASQSGEPLETKIKIMESHPNGTFSAKGVASVCVEDWNNRKEFVCTVTHRDLPSPQKKFISKPNEVHKHPPAVYLLPPAREQLNLRESATVTCLVKGFSPADISVQWLQRGQLLPQEKYVTSAPMPEPGAPGFYFTHSILTVTEEEWNSGETYTCVVGHEALPHLVTERTVDKSTGKPTLYNVSLIMSDTGGTCY
light: DVVMTQSPLSLPVSLGDQASISCRSSKSLVHSNGNTYLHWYLQKPGQSPKLLIYKVSNRFSGVPDRFSGSGSGTDFTLKISRVEAEDLGVYFCSQSTHVPPAFGGGTKLEIKRADAAPTVSIFPPSSEQLTSGGASVVCFLNNFYPKDINVKWKIDGSERQNGVLNSWTDQDSKDSTYSMSSTLTLTKDEYERHNSYTCEATHKTSTSPIVKSFNRNEC
chain: DDEATILADNKCMCTRVTSRIIPSTEDPNEDIVERNIRIVVPLNNRENISDPTSPLRRNFVYHLSDVCKKCDPVEVELEDQVVTATQSNICNEDDGVPETCYMYDRNKCYTTMVPLRYHGETKMVQAALTPDSCYPD
With B1, the “ED 50 (IgM concentration at which HPB-ALL cell survival is 50%), 細胞障害活性” value turned out to be 10.7 ng/mL.

B2: 抗ヒトFasヒト化抗体 [B] (expression product of pHμM1-1 and pHκKY2-58 in COS-7 cells; HμM heavy chain + VL-KY light chain) (antibody)
heavy: EVQLVQSGAEVKKPGASVKVSCKASGYTFTDYNMHWVKQAHGKSLEWMGYIYPYNGGTGYNQKFKSKATLTVDNSASTAYMELSSLRSEDTAVYYCARSYYAMDYWGQGTLVTVSSGSASAPTLFPLVSCENSPSDTSSVAVGCLAQDFLPDSITFSWKYKNNSDISSTRGFPSVLRGGKYAATSQVLLPSKDVMQGTDEHVVCKVQHPNGNKEKNVPLPVIAELPPKVSVFVPPRDGFFGNPRKSKLICQATGFSPRQIQVSWLREGKQVGSGVTTDQVQAEAKESGPTTYKVTSTLTIKESDWLSQSMFTCRVDHRGLTFQQNASSMCVPDQDTAIRVFAIPPSFASIFLTKSTKLTCLVTDLTTYDSVTISWTRQNGEAVKTHTNISESHPNATFSAVGEASICEDDWNSGERFTCTVTHTDLPSPLKQTISRPKGVALHRPDVYLLPPAREQLNLRESATITCLVTGFSPADVFVQWMQRGQPLSPEKYVTSAPMPEPQAPGRYFAHSILTVSEEEWNTGETYICVVAHEALPNRVTERTVDKSTGKPTLYNVSLVMSDTAGTCY
light: DVVMTQSPLSLPVTLGQPASISCRSSKSLVHSNGNTYLHWYLQKPGQSPKLLIYKVSNRFSGVPDRFSGSGSGTDFTLKISRVEAEDVGVYYCSQSTHVPPAFGQGTKVEIKRTVAAPSVFIFPPSDEQLKSGTASVVCLLNNFYPREAKVQWKVDNALQSGNSQESVTEQDSKDSTYSLSSTLTLSKADYEKHKVYACEVTHQGLSSPVTKSFNRGEC
On to B2, for which the “ED 50 (IgM concentration at which HPB-ALL cell survival is 50%), 細胞障害活性” value was 1.1 ng/mL.

B3: 抗ヒトFasヒト化抗体 [I] (expression product of pHμH5-1 and pHκRF2-52 in COS-7 cells; HμH heavy chain + VL-RF light chain) (antibody)
heavy: B2 heavy with K38R, H41P, K43Q, S44G
light: B2 light with K50R, Y92F
With B3, the “ED 50 (IgM concentration at which HPB-ALL cell survival is 50%), 細胞障害活性” value was determined as 3.4 ng/mL.

B4: 抗ヒトFasヒト化抗体 [G] (expression product of pHμH5-1 and pHκKF2-19 in COS-7 cells; HμH heavy chain + VL-KF light chain) (antibody)
heavy: B2 heavy with K38R, H41P, K43Q, S44G
light: B2 light with Y92F
B4: the “ED 50 (IgM concentration at which HPB-ALL cell survival is 50%), 細胞障害活性” value amounted to 2.4 ng/mL.

B5: 抗ヒトFasヒト化抗体 [E] (expression product of pHμM1-1 and pHκRF2-52 in COS-7 cells; HμM heavy chain + VL-RF light chain) (antibody)
heavy: B2 heavy
light: B2 light with K50R, Y92F
For the molecule B5, the “ED 50 (IgM concentration at which HPB-ALL cell survival is 50%), 細胞障害活性” value stood at 1.5 ng/mL.

B6: 抗ヒトFasヒト化抗体 [D] (expression product of pHμM1-1 and pHκRY2-10 in COS-7 cells; HμM heavy chain + VL-RY light chain) (antibody)
heavy: B2 heavy
light: B2 light with K50R
As for B6, the “ED 50 (IgM concentration at which HPB-ALL cell survival is 50%), 細胞障害活性” value was found to be 1.7 ng/mL.

B7: 抗ヒトFasヒト化抗体 [C] (expression product of pHμM1-1 and pHκKF2-19 in COS-7 cells; HμM heavy chain + VL-KF light chain) (antibody)
heavy: B2 heavy
light: B2 light with Y92F
Take B7: the “ED 50 (IgM concentration at which HPB-ALL cell survival is 50%), 細胞障害活性” value amounted to 1 ng/mL.
